Assay results published in patent publication US20230250157A1.

B1: HSW-2 (antibody, V domains shown)
VH: QVQLQQSGPELVKPGASVKISCKASGYVFSTSWMSWVKQRPGEGPEWIGRIYPRDGHSSSTGKFKDKATLTADKSSNTAYIHLSSLTSEDSAVYFCARDYGYYYFDYWGQGTTLTVSS
VL: DIQMTQSPASLSASVGEAVTITCRLSENVYSFLAWYQQKQGKSPQLLVYRAKTLAEGVPSRFSGSGSGTQFSLKINSLQPEDFGTYYCQHHYGTPPTFGGGTKLEIK
B2: HSW-1 (antibody, V domains shown)
VH: QVQLQQPGAELVKPGTSMKLSCKASGYTFTSYWMHWVKQRPGQGLEWIGMIHPNSGSTKYNENFKSKATLTVDKSSSTAYMQFSSLTSEDSAVYYCVRSGSYYGTTYDYFDYWGQGTTLTVSS
VL: DIVLTQSPASLAVSLGQRATISCRASESVNIYGNSFMHWYQQKPGQPPKLLIFRASNLESGIPVRFSGSGSRTDFTLTINPVEADDVATYYCHQSNEDPFTFGSGTKLEIK

Molecular target: sarbecoviruses tested (pseudovirus spikes)
Test: cell-based or functional assay

Row | Binder | pseudovirus neutralization IC50
1 | B1 | > 10 µg/mL
2 | B2 | > 10 µg/mL
